The supplement of paper PMC7877785
± gives the uncertainty stated by the source.

Assay: self-splicing fitness, log relative to wild type (ln ratio); higher = more splicing; Tetrahymena group I intron in knt gene, E. coli kanamycin selection, DiMSum; sequences stand for … in CUCUCU…GGAGGGAAAAGUUAUCAGGCAUGCACCUGGUAGCUAGUCUUUAAACCAAUAGAUUGCAUCGGUUUAAAAGGCAAGACCGUCAAAUUGCGGGAAAGGGGUCAACAGCCGUUCAGUACCAAGUCUCAGGGGAAACUUUGAGAUGGCCUUGCAAAGGGUAUGGUAAUAAGCUGACGGACAUGGUCCUAACCACGCAGCCAAGUCCUAAGUCAACAGAUCUUCUGUUGAUAUGGAUGCAGUUCACAGACUAAAUGUCGGUCGGGGAAGAUGUAUUCUUCUCAUAAGAUAUAGUCGGACCUCUCCUUAAUGGGAGCUAGCGGAUGAAGUGAUGCAACACUGGAGCCGCUGGGAACUAAUUUGUAUGCGAAAGUAUAUUGAUUAGUUUUGGAGUACUCGUGGUCG
Method in brief: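 DiMSum derived fitness as the error-weighted combination of fold changes across replicates, kanamycin versus no kanamycin, normalised to wild type. E. coli BL21(DE3) held the library, which randomised all eight P1ex-region intron nucleotides within the knt kanamycin-resistance gene on pET-22b(+). Six replicate transformations grew overnight at 37°C or 30°C on LB agar with or without 25 μg/mL kanamycin, also containing 100 μg/mL carbenicillin, 50 μM IPTG and 0.2% rhamnose, and pooled colonies were amplicon-sequenced on an Illumina HiSeq 2500.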

Row | Sequence | self-splicing fitness (ln) (30 °C) | self-splicing fitness (ln) (37 °C)
1 | CGGGAGCAAUAUUACGAUUG | -2.22 ± 0.46 | -1.72 ± 0.34
2 | CGGGAGCAAUAUUACGCACU | -2.4 ± 0.24 | -2.65 ± 0.25
3 | CGGGAGCAAUAUUACGCCGG | -2.87 ± 0.46 | -1.81 ± 0.34
4 | CGGGAGCAAUAUUACGCGCA |  | -0.737 ± 0.49
5 | CGGGAGCAAUAUUACGCGUC | -2.87 ± 0.22 | -2.8 ± 0.27
6 | CGGGAGCAAUAUUACGGAAG | -2.64 ± 0.18 | -1.3 ± 0.17
7 | CGGGAGCAAUAUUACGGCAU |  | -1.8 ± 0.35
8 | CGGGAGCAAUAUUACGGUAU | -3.81 ± 0.47 | -2.36 ± 0.42
9 | CGGGAGCAAUAUUACGGUGG | -3.1 ± 0.37 | -2.43 ± 0.45
10 | CGGGAGCAAUAUUACGUAUG | -3.99 ± 0.35 | 
11 | CGGGAGCAAUAUUACGUGGG | -2.97 ± 0.35 | 
12 | CGGGAGCAAUAUUACGUUCU | -3.58 ± 0.18 | -1.49 ± 0.19
13 | CGGUAGCAAUAUUACGAACG | -1.54 ± 0.13 | -1.29 ± 0.14
14 | CGGUAGCAAUAUUACGAGAG | -3.4 ± 0.19 | -0.673 ± 0.11
15 | CGGUAGCAAUAUUACGCCUC | -2.36 ± 0.38 | -0.282 ± 0.29
16 | CGGUAGCAAUAUUACGCCUU | -0.779 ± 0.11 | -0.542 ± 0.14
17 | CGGUAGCAAUAUUACGCGCG | -2.49 ± 0.31 | -1.87 ± 0.22
18 | CGGUAGCAAUAUUACGCGGU | -3.28 ± 0.22 | -2.96 ± 0.16
19 | CGGUAGCAAUAUUACGCUCA | -0.279 ± 0.15 | -0.399 ± 0.21
20 | CGGUAGCAAUAUUACGGACA | -1.91 ± 0.32 | -1.34 ± 0.29
21 | CGGUAGCAAUAUUACGGAGU | -3.33 ± 0.28 | -3.27 ± 0.35
22 | CGGUAGCAAUAUUACGGCAA | -2.22 ± 0.19 | -2.52 ± 0.28
23 | CGGUAGCAAUAUUACGGCUA | -1.59 ± 0.2 | -2.01 ± 0.28
24 | CGGUAGCAAUAUUACGGGCA | -1.75 ± 0.24 | -0.528 ± 0.2
25 | CGGUAGCAAUAUUACGGGCU | -3.22 ± 0.13 | -1.82 ± 0.14
26 | CGGUAGCAAUAUUACGGUCC | -2.24 ± 0.15 | -0.321 ± 0.17
27 | CGGUAGCAAUAUUACGUCUA | -0.754 ± 0.073 | -0.163 ± 0.081

Row | Sequence | self-splicing fitness (ln) (30 °C) | self-splicing fitness (ln) (37 °C)
28 | CGGUAGCAAUAUUACGUGUC | -2.99 ± 0.34 | -2.5 ± 0.21
29 | CGUAAGCAAUAUUACGAAGA | -3.07 ± 0.31 | 
30 | CGUAAGCAAUAUUACGAAGC | -2.95 ± 0.23 | -2.73 ± 0.26
31 | CGUAAGCAAUAUUACGAAUG | -0.363 ± 0.081 | -0.692 ± 0.088
32 | CGUAAGCAAUAUUACGACAA |  | -1.32 ± 0.23
33 | CGUAAGCAAUAUUACGACCC | -2.71 ± 0.38 | -2.23 ± 0.23
34 | CGUAAGCAAUAUUACGAGGA |  | -1.75 ± 0.33
35 | CGUAAGCAAUAUUACGAGUU | -3.38 ± 0.17 | -2.6 ± 0.23
36 | CGUAAGCAAUAUUACGCAAU | -3.61 ± 0.24 | -2.64 ± 0.23
37 | CGUAAGCAAUAUUACGCACA | -1.37 ± 0.18 | -0.0497 ± 0.23
38 | CGUAAGCAAUAUUACGCAUU | -3.95 ± 0.28 | -2.68 ± 0.18
39 | CGUAAGCAAUAUUACGCGAU | -3.53 ± 0.2 | -1.98 ± 0.18
40 | CGUAAGCAAUAUUACGCGCC |  | -1.97 ± 0.35
41 | CGUAAGCAAUAUUACGCGGG | -2.35 ± 0.15 | -2.72 ± 0.25
42 | CGUAAGCAAUAUUACGCGGU | -1.99 ± 0.23 | -1.69 ± 0.38
43 | CGUAAGCAAUAUUACGCGUG | -1.79 ± 0.088 | -0.855 ± 0.12
44 | CGUAAGCAAUAUUACGCGUU | -3.69 ± 0.36 | -2.31 ± 0.32
45 | CGUAAGCAAUAUUACGGCGC | -2.21 ± 0.26 | -2.2 ± 0.42
46 | CGUAAGCAAUAUUACGGGCU |  | -1.92 ± 0.21
47 | CGUAAGCAAUAUUACGGUUA | -2.29 ± 0.12 | -1.72 ± 0.14
48 | CGUAAGCAAUAUUACGUCGU | -3.41 ± 0.16 | -1.63 ± 0.15
49 | CGUAAGCAAUAUUACGUGCG | -2.95 ± 0.17 | -2.17 ± 0.16
50 | CGUAAGCAAUAUUACGUGGC | -4.85 ± 0.36 | -2.39 ± 0.15
51 | CGUAAGCAAUAUUACGUGUG | -1.29 ± 0.063 | -0.745 ± 0.078
52 | CGUCAGCAAUAUUACGAAAC | -3.63 ± 0.32 | -1.6 ± 0.32
53 | CGUCAGCAAUAUUACGAACU | -0.352 ± 0.095 | -0.0116 ± 0.11
54 | CGUCAGCAAUAUUACGACGG | -0.836 ± 0.081 | -0.516 ± 0.12

Row | Sequence | self-splicing fitness (ln) (30 °C) | self-splicing fitness (ln) (37 °C)
55 | CGUCAGCAAUAUUACGAGCC | -2.25 ± 0.48 | 
56 | CGUCAGCAAUAUUACGAGGA | -2.27 ± 0.19 | -2.38 ± 0.28
57 | CGUCAGCAAUAUUACGCAAG | -0.161 ± 0.07 | -0.63 ± 0.091
58 | CGUCAGCAAUAUUACGCAAU | -1.37 ± 0.1 | -2.12 ± 0.24
59 | CGUCAGCAAUAUUACGCACA | -0.869 ± 0.09 | 0.0106 ± 0.13
60 | CGUCAGCAAUAUUACGCCCU | -1.89 ± 0.15 | -0.223 ± 0.23
61 | CGUCAGCAAUAUUACGCCGU | -2.49 ± 0.12 | 0.143 ± 0.11
62 | CGUCAGCAAUAUUACGCCUA | -2.32 ± 0.29 | -0.757 ± 0.18
63 | CGUCAGCAAUAUUACGCGAG | -4.12 ± 0.36 | -0.926 ± 0.17
64 | CGUCAGCAAUAUUACGCGUC | -2.38 ± 0.42 | 
65 | CGUCAGCAAUAUUACGGCAA | -1.75 ± 0.14 | -1.89 ± 0.13
66 | CGUCAGCAAUAUUACGGCCC | -1.75 ± 0.17 | -0.728 ± 0.24
67 | CGUCAGCAAUAUUACGUAAG | 0.214 ± 0.054 | 0.2 ± 0.07
68 | CGUCAGCAAUAUUACGUACC | -1.33 ± 0.13 | 0.208 ± 0.15
69 | CGUCAGCAAUAUUACGUACG | -3.6 ± 0.43 | -2.97 ± 0.37
70 | CGUCAGCAAUAUUACGUCGA | -2.18 ± 0.1 | -1.77 ± 0.14
71 | CGUCAGCAAUAUUACGUUGG | -3.57 ± 0.11 | -2.78 ± 0.16
72 | CGUGAGCAAUAUUACGAAAA |  | -2.88 ± 0.43
73 | CGUGAGCAAUAUUACGACGU | -2.12 ± 0.19 | -2.37 ± 0.18
74 | CGUGAGCAAUAUUACGAGUG | -1.24 ± 0.12 | 0.147 ± 0.16
75 | CGUGAGCAAUAUUACGAGUU | -3.88 ± 0.47 | -3.72 ± 0.36
76 | CGUGAGCAAUAUUACGCACU | -0.892 ± 0.13 | -0.687 ± 0.13
77 | CGUGAGCAAUAUUACGCAUC | -1.85 ± 0.48 | -2.43 ± 0.35
78 | CGUGAGCAAUAUUACGCGUG | -2 ± 0.13 | -0.684 ± 0.1
79 | CGUGAGCAAUAUUACGCUUC | -3.91 ± 0.41 | -3.07 ± 0.43
80 | CGUGAGCAAUAUUACGGAAG | -1.17 ± 0.1 | -1.01 ± 0.13
